Laboratory results taken from patent publication US20140322210A1.
Like-named read-outs stand apart in the source and are kept apart here.

Tests used:
[1] = target: Hemagglutinin of H3N2 A/Hong Kong/8/68 (influenza A virus); test: cell-based or functional assay
[2] = target: Hemagglutinin of H3N2 A/Perth/16/2009 (influenza A virus); test: cell-based or functional assay
[3] = target: Hemagglutinin of H4N4 A/Bufflehead (influenza A virus); test: cell-based or functional assay
[4] = target: Hemagglutinin of H7N7 A/Netherlands/219/03 (influenza A virus); test: cell-based or functional assay
[5] = target: Hemagglutinin of H3N2 A/New York/55/2004 (influenza A virus); test: cell-based or functional assay
[6] = target: Hemagglutinin of H3N2 A/Wisconsin/67/2005 (influenza A virus); test: cell-based or functional assay
[7] = target: Hemagglutinin of H5N1 A/VN/1204 (influenza A virus); test: cell-based or functional assay
[8] = target: Hemagglutinin of H1N1 A/CA/07/09 (influenza A virus); test: cell-based or functional assay
[9] = target: Influenza A hemagglutinin of clade H1 (strain not stated) (influenza A virus); test: FortéBio biolayer interferometry
[10] = target: Influenza A hemagglutinin of clade H5 (strain not stated) (influenza A virus); test: FortéBio biolayer interferometry
[11] = target: Influenza A hemagglutinin of clade H3 (strain not stated) (influenza A virus); test: FortéBio biolayer interferometry
[12] = target: Influenza A hemagglutinin of clade H7 (strain not stated) (influenza A virus); test: FortéBio biolayer interferometry
[13] = target: Influenza A hemagglutinin of clade H9 (strain not stated) (influenza A virus); test: FortéBio biolayer interferometry
[14] = target: Hemagglutinin of H5N1 A/VN/1204 (influenza A virus); test: affinity, method not named in Table 3
[15] = target: Hemagglutinin of H1N1 A/CA/07/09 (influenza A virus); test: affinity, method not named in Table 3
[16] = target: Hemagglutinin of H2N2 A/Mallard/MN/2008 (influenza A virus); test: cell-based or functional assay
[17] = target: Hemagglutinin of H5N1 A/VN/1204 (influenza A virus); test: cell-based or functional assay; remark: listed apart in the source
[18] = target: Hemagglutinin of H9N2 Mallard/MN/98 (influenza A virus); test: cell-based or functional assay
[19] = target: Hemagglutinin of H1N1 A/CA/07/09 (influenza A virus); test: cell-based or functional assay; remark: listed apart in the source
[20] = target: Hemagglutinin of H5 Vietnam/1203/2004 (influenza A virus); test: FortéBio
[21] = target: Hemagglutinin of H1N1 A/CA/07/09 (influenza A virus); test: FortéBio
[22] = target: Hemagglutinin of H3N2 A/Hong Kong/8/68 (influenza A virus); test: affinity, method not named in Table 3
[23] = target: Hemagglutinin of H3N2 A/Perth/16/2009 (influenza A virus); test: affinity, method not named in Table 3
[24] = target: Hemagglutinin of H7N3 A/Canada/rv444/04 (influenza A virus); test: affinity, method not named in Table 3
[25] = target: Hemagglutinin of H7N7 A/Netherlands/219/03 (influenza A virus); test: affinity, method not named in Table 3
[26] = target: Hemagglutinin of H3N2 A/New York/55/2004 (influenza A virus); test: affinity, method not named in Table 3
[27] = target: Hemagglutinin of H3N2 A/Hong Kong/8/68 (influenza A virus); test: cell-based or functional assay; remark: listed apart in the source
[28] = target: Hemagglutinin of H7 A/Sanderling/A106-125 (influenza A virus); test: cell-based or functional assay
[29] = target: Hemagglutinin of H3 A/Phillipines/2/82 x-79 (influenza A virus); test: cell-based or functional assay
[30] = target: Hemagglutinin of H3N2 A/Perth/16/2009 (influenza A virus); test: cell-based or functional assay; remark: listed apart in the source
[31] = target: Hemagglutinin of H10N7 A/Northern Shoveler (influenza A virus); test: cell-based or functional assay
[32] = target: Hemagglutinin of H7N3 A/Canada/rv444/04 (influenza A virus); test: cell-based or functional assay
[33] = target: Hemagglutinin of H3 A/SW/MN/02719 (influenza A virus); test: cell-based or functional assay
[34] = target: Hemagglutinin of H4N4 A/Bufflehead (influenza A virus); test: cell-based or functional assay; remark: listed apart in the source
[35] = target: Hemagglutinin of H7N7 A/Netherlands/219/03 (influenza A virus); test: cell-based or functional assay; remark: listed apart in the source
[36] = target: Hemagglutinin of H7 A/Ruddy Turnstone/A106-892 (influenza A virus); test: cell-based or functional assay
[37] = target: Hemagglutinin of H3N2 A/New York/55/2004 (influenza A virus); test: cell-based or functional assay; remark: listed apart in the source
[38] = target: Hemagglutinin of H3 A/Udorn/307/1976 (influenza A virus); test: cell-based or functional assay
[39] = target: Hemagglutinin of H3N2 A/Wisconsin/67/2005 (influenza A virus); test: cell-based or functional assay; remark: listed apart in the source
[40] = target: Hemagglutinin of H7 A/Redknot/NJ/1523470/06 (influenza A virus); test: cell-based or functional assay
[41] = target: Hemagglutinin of H3N2 A/Hong Kong/8/68 (influenza A virus); test: FortéBio
[42] = target: Hemagglutinin of H3N2 A/Perth/16/2009 (influenza A virus); test: FortéBio
[43] = target: Hemagglutinin of H7N7 A/Netherlands/219/03 (influenza A virus); test: FortéBio

“CR8020 (mAb cloned from Crucell patents) (antibody)” gave an EC50 for in vitro neutralization [1] of 7.6 µg/mL, an EC50 for in vitro neutralization [2] of 2 µg/mL and an EC50 for in vitro neutralization [3] of over 40 µg/mL. It also gave an EC50 for in vitro neutralization [4] of 13.1 µg/mL, an EC50 for in vitro neutralization [5] of 10 µg/mL and an EC50 for in vitro neutralization [6] of 3.5 µg/mL.

In the case of “CR6261 (mAb cloned from Crucell patents) (antibody)”, the EC50 for in vitro neutralization [7] is reported as 3.7 µg/mL and the EC50 for in vitro neutralization [8] is reported as 4 µg/mL.

B1: MAB8 (antibody, V domains shown)
VH: EVQLVESGGGLVKPGGSLRLSCAASGFTFSTYTMSWVRQAPGQGLEWVSSITRTSSNIYYADSVEGRFTISRDNAKNSLYLQMHSLRVEDTAVYYCARISGVVGPVPFDYWGQGTLITVSS
VL: DIQMTQSPSSLSASVGDRVTITCRASQTISKYLNWYQQKPGRAPKLLIYSASSLQSGVPSRFTGSGSGTDFTLTITSLQPEDFATYYCQQSYRPSQITFGPGTKVDIK
With B1 the Kd [9] was 9 nM, the Kd [10] was 0.2 nM and the Kd [11] was 16 nM.

B2: MAB53 (antibody, V domains shown)
VH: QVQLVQSGAEVRKPGSSVKVSCKVSGGIIRKYAINWVRQAPGQGLEWMGGIIAIFNTANYAQKFQGRVTITADESTSTVYMELSSLRSEDTALYYCARGMNYYSDYFDYWGQGSLVTVSP
VL: EIVLTQSPGTLSLSPGERATLSCRASQSVRSNNLAWYQHKPGQAPRLLIFGASSRATGIPDRFSGSGSGTDFTLTISRLEPEDFAVYYCQQYGSSPALTFGGGTKVEIK
Molecule B2 has a Kd [12] of 0.07 nM, a Kd [9] of 0.06 nM and a Kd [10] of 6 nM. The Kd [13] was 0.03 nM, the Kd [14] was 0.5 nM and the Kd [15] was 0.1 nM. The EC50 for in vitro neutralization [16] was 1.2 µg/mL, the EC50 for in vitro neutralization [17] was 0.1 µg/mL and the Potency Difference (MAB53 against CR6261) [17] was 40 x. The EC50 for in vitro neutralization [18] was 0.1 µg/mL, the EC50 for in vitro neutralization [19] was 0.14 µg/mL and the Potency Difference (MAB53 against CR6261) [19] was 30 x. It also gave a Kd [20] of 0.5 nM and a Kd [21] of 0.2 nM.

B3: MAB579 (antibody, V domains shown)
VH: QVQLVQSGAEVKKPGASVKVSCKTSGYTFTAYTIHWVRQAPGQRLEWMGWINAGNGHTKYSQRFKGRVTITRDTSARTTYMELRSLTSEDTALYFCARGPETYYYDKTNWLNSHPDEYFQHWGHGTQVTVSS
VL: DIQMTQSPSTLSASVGDRVTITCRASQTINNYLAWYQQKPGKAPKLLIYKASSLESGVPSRFSGSGSGTEFTLTISSLQPDDFATYYCQEYNNDSPLTFGGGTKVEIK
B3 was tested, and the Kd [22] was 0.2 nM, the Kd [23] was 0.8 nM and the Kd [24] was 0.6 nM. The Kd [25] was 0.4 nM, the Kd [26] was 0.2 nM and the EC50 for in vitro neutralization [27] was 2 µg/mL. For the same molecule, the IC50, MDCK monolayer microneutralization assay [27] was 2.8 µg/mL, the Potency Difference (MAB579 against CR8020) [27] was 3 x and the IC50, MDCK monolayer microneutralization assay [28] was over 20 µg/mL. The IC50, MDCK monolayer microneutralization assay [29] was 0.9 µg/mL, the EC50 for in vitro neutralization [30] was 0.05 µg/mL and the IC50, MDCK monolayer microneutralization assay [30] was 0.2 µg/mL. It also gave a Potency Difference (MAB579 against CR8020) [30] of 40 x, an EC50 for in vitro neutralization [31] of 0.8 µg/mL and an IC50, MDCK monolayer microneutralization assay [31] of 0.8 µg/mL. It also gave an EC50 for in vitro neutralization [32] of 0.5 µg/mL, an IC50, MDCK monolayer microneutralization assay [32] of 1.6 µg/mL and an IC50, MDCK monolayer microneutralization assay [33] of 3.9 µg/mL. It also gave an EC50 for in vitro neutralization [34] of 15 µg/mL, an IC50, MDCK monolayer microneutralization assay [34] of 15.5 µg/mL and a Potency Difference (MAB579 against CR8020) [34] of 3 x. For the same molecule, the EC50 for in vitro neutralization [35] was 0.7 µg/mL, the IC50, MDCK monolayer microneutralization assay [35] was 0.6 µg/mL and the Potency Difference (MAB579 against CR8020) [35] was 20 x. For the same molecule, the IC50, MDCK monolayer microneutralization assay [36] was over 20 µg/mL, the EC50 for in vitro neutralization [37] was 2 µg/mL and the IC50, MDCK monolayer microneutralization assay [37] was 1.1 µg/mL. It also gave a Potency Difference (MAB579 against CR8020) [37] of 5 x, an IC50, MDCK monolayer microneutralization assay [38] of 1.9 µg/mL and an EC50 for in vitro neutralization [39] of 1 µg/mL. For the same molecule, the IC50, MDCK monolayer microneutralization assay [39] was 1 µg/mL, the Potency Difference (MAB579 against CR8020) [39] was 3 x and the IC50, MDCK monolayer microneutralization assay [40] was over 20 µg/mL. It also gave a Kd [41] of 0.2 nM, a Kd [42] of 0.7 nM and a Kd [43] of 0.4 nM.
